Experimental data from patent publication US20240352434, “COMPOSITIONS COMPRISING A VARIANT CAS12I3 POLYPEPTIDE AND USES THEREOF” (Arbor Biotechnologies, Inc., published 2024).
Changes are numbered by the printed parent chain.

B1: EMX1_T5 crRNA ; EMX1_T5 target (ssRNA ; dsDNA)
RNA: AUAGUGUGUCCUUAGUUGACAUUAUUAUUCCCAUAGGGAAGG
DNA 1: TATTATTCCCATAGGGAAGG
DNA 2: CCTTCCCTATGGGAATAATA
B2: AAVS1_T3 crRNA ; AAVS1_T3 target (ssRNA ; dsDNA)
RNA: AUAGUGUGUCCUUAGUUGACAUGUGAGAAUGGUGCGUCCUAG
DNA 1: GTGAGAATGGTGCGTCCTAG
DNA 2: CTAGGACGCACCATTCTCAC
B3: VEGFA_T2 crRNA ; VEGFA_T2 target (ssRNA ; dsDNA)
RNA: AUAGUGUGUCCUUAGUUGACAUAAUCCUCCACCAGUCAUGGU
DNA 1: AATCCTCCACCAGTCATGGT
DNA 2: ACCATGACTGGTGGAGGATT

Molecular target: T1, Cas12i3 S536R (Unidentified, S536R)
T1 chain: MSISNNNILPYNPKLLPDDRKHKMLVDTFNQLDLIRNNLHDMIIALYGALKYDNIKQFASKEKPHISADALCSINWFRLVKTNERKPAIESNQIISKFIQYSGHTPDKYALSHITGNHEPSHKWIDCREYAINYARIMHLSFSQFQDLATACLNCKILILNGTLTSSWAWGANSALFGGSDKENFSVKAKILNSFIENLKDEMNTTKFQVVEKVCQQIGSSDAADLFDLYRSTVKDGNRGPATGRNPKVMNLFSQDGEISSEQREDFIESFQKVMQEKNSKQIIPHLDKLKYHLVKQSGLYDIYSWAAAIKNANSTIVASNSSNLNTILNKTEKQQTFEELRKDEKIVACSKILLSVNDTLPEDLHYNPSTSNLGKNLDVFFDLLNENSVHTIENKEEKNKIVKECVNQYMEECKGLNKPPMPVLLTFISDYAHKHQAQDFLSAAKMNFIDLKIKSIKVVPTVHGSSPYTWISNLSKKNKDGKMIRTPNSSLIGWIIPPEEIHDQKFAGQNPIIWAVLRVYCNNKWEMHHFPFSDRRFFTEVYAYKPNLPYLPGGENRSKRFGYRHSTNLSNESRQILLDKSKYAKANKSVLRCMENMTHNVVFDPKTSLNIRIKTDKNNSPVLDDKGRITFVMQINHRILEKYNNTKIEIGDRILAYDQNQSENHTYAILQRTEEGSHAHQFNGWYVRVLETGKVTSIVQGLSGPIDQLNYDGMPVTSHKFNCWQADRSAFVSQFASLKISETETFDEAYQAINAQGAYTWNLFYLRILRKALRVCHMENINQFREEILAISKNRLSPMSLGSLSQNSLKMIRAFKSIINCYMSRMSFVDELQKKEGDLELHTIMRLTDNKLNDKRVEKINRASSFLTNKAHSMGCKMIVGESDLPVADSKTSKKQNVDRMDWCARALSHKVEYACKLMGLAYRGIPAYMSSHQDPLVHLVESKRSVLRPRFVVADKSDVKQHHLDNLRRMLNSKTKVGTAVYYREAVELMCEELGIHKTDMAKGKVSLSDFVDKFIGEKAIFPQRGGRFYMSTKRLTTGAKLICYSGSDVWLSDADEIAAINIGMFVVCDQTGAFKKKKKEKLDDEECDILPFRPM
Experiment: cell_activity; fold change in % indels, HEK293T; PAM not stated in example
Summary of the method: (§1)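 HEK293T cells lipofected with Lipofectamine 2000 (crRNA omitted in negative controls). Harvested 72 h post-transfection and lysed in QuickExtract. Target loci amplified by two-round PCR and sequenced on NextSeq (150 cycles) to quantify % indels.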

Binder	binding signal
B1	1.27 fold of wild-type
B2	2.16 fold of wild-type
B3	1.8 fold of wild-type

Molecular target: T2, Cas12i3 K583R (Unidentified, K583R)
T2 chain: T1 chain with R536S, K583R
Experiment: as above
Summary of the method: as §1

Binder	binding signal
B1	1.3 fold of wild-type
B2	1.81 fold of wild-type
B3	1.74 fold of wild-type
